Results reported in the DeepSol protein solubility set.

Experiment: soluble on expression in E. coli; label from the status in PepcDB or PDB records

| Sequence | soluble on expression in E. coli |
| --- | --- |
| MRYHIALVGRRNSGKSSLLNMLAGQQISIVSDIKGTTTDAVAKAYELQPLGPVTFYDTAGIDDEGTLGAMRVSATRRVLFRSDMALLVVDEQGLCPSDMALIDEIRQLQMPILMVFNKADICTPKAEDIAFCQNQSLPFIVVSAATGLAGKQLKQLMVELAPAEYKQEPLLAGDLYQAGDVILCVVPIDMAAPKGRLILPQVQILREALDRSAIAMVVKETELAQALSVVTPKLVISDAQAIKQVAAIVPDAVPLTTFSTLFARFKGDLAALATGADALDTLQDGDKVLISEACSHNVQEDDIGRVKLPRWINSYTGKQLEFVVTSGHDFPNDLEQYALVIHCGACMFNRNEMLRRIRECQRRQVPITNYGVAISKLQGVLPRVLTPFNRNPQQLEHHHHHH | soluble |
| MRYSSRMPGSVMPGAGAHPRIPQVQTSVANSQILGYLGRALSLEFTAGQHYLAQASLAKFRQEISYAEGFITLANEEFQHANLITDRMVAQGALPAGSVLRPAGSANNIAEALKSCEEREIALIQLYTEATQYCANMGAQEDHALFSRLLEEEQSQLMRVQAWLQDYFQMMANTYQPDRSFV | not soluble |
| MSAAGDLRRRARLSRLVSFSASHRLHSPSLSDEENLRVFGKCNNPNGHGHNYKVVVTVHGEIDPVTGMVMNLTDLKEYMEEAIMKPLDHKNLDLDVPYFADAVSTTENVAVYIWESLQKLLPVGALYKVKVFETDNNIVVYKGE | soluble |
| MSAESERKTETIPEWKQEEVDAIVEMIESYESVGVVNIAGIPSRQLQDMRRDLHGTAELRVSRNTLLERALDDVDDGLEDLNGYITGQVGLIGTDDNPFSLFQELEASKTPAPIGAGEVAPNDIVIPEGDTGVDPGPFVGELQSVGADARIQEGSIQVLSDSTVLDTGEEVSQELSNVLNELGIEPKEVGLDLRAVFADGVLFEPEELELDIDEYRSDIQAAAGRAFNLSVNADYPTATTAPTMLQSDRGNAKSLALQAAIEDPEVVPDLVSKADAQVRALASQIDDEEALPEELQGVEADVATEEPTDDQDDDTASEDDADADDAAEEADDDDDDDEDAGDALGAMF | soluble |
| MSAFKKSLLVAGVAMILSNNVFADEGHGIVKFKGEVISAPCSIKPGDEDLTVNLGEVADTVLKSDQKSLAEPFTIHLQDCMLSQGGTTYSKAKVTFTTANTMTGQSDLLKNTKETEIGGATGVGVRILDSQSGEVTLGTPVVITFNNTNSYQELNFKARMESPSKDATPGNVYAQADYKIAYE | soluble |
| MSAKAISEQTGKELLYKFICTTSAIQNRFKYARVTPDTDWARLLQDHPWLLSQNLVVKPDQLIKRRGKLGLVGVNLTLDGVKSWLKPRLGQEATVGKATGFLKNFLIEPFVPHSQAEEFYVCIYATREGDYVLFHHEGGVDVGDVDAKAQKLLVGVDEKLNPEDIKKHLLVHAPEDKKEILASFISGLFNFYEDLYFTYLEINPLVVTKDGVYVLDLAAKVDATADYICKVKWGDIEFPPPFGREAYPEEAYIADLDAKSGASLKLTLLNPKGRIWTMVAGGGASVVYSDTICDLGGVNELANYGEYSGAPSEQQTYDYAKTILSLMTREKHPDGKILIIGGSIANFTNVAATFKGIVRAIRDYQGPLKEHEVTIFVRRGGPNYQEGLRVMGEVGKTTGIPIHVFGTETHMTAIVGMALGHRPIP | soluble |
| MSAKKERVDVLLVERGLIETREKAKRAIMAGLVYANEMRLDKPGEKIPQDTEITVKGQVMPYVSRGGYKLEKALETFHLDLQDKVMIDIGSSTGGFTDCALQNGAKLSYALDVGYNQLAWKLRQDERVVVMERTNFRYVTPADLERGLPQFASIDVSFISLKLILPVLKTMLMPNGDVAALIKPQFEAGREQVGKKGIVRDRKVHEAVVEMIVDFAIKEGYDVEGLTFSPITGGDGNIEFLIHLKWHGERENGENHSPVSVEQVVTEAHDVLKQKGKGE | not soluble |
| MSARMDNDTAALLERIRSDWARLNHGQGPDSDGLTPSAGPMLTLLLLERLHAALGREIERTYAASGLNAAGWDLLLTLYRSAPPEGLRPTELSALAAISGPSTSNRIVRLLEKGLIERREDERDRRSASIRLTPQGRALVTHLLPAHLATTQRVLAPLSAQEQRTLEELAGRMLAGLEQGV | soluble |
| MSATMQSETVYDAVIVGGGVAGGTAALLLRQRGCSVALLEKRPLDYYKALCTHFIQPSAVPILRRVGLDHVLEPEASTRTKASFVTSEGVIDTPGGYTDDAATAYAYNLERRVLDPALRARARSEGVDLLDEATVTACRLQADGLWRVEADADTDTDGARHPRVLRARVVIAADGRRSQMAQWLNNAAVQHDNQRAAVFAQFEGIAVPGGNRSLFILAEREMGFVYPLTGGRTLLSAYVEKDRAAQWRHSADAGAPLLDFFARLAPGLDLAGARLLTPVLGYADYPSQFRQPVCGAVPFIGDAALSLDPMSGVGCGFAMEAAALLDEHLGPALQAQGNSAIGPALDAYASRFDTHFAAHARGIVADSLIAKQPAAQAALYRAVIADPALQRDYLALTGRLITPQAFQRAYFSAHVRSQRAATTHAHPPERASELSLEHHHHHH | not soluble |
| MSAVKKQRIDLRLTDDDKSMIEEAAAISNQSVSQFMLNSASQRAAEVIEQHRRVILNEESWTRVMDALSNPPSPGEKLKRAAKRLQGM | soluble |
| MSCALLIENLTCQYDAQTVLKSLSLQVNPGEIVCLLGASGCGKTTLLKAIAGLLPLASGQLSLNCVTLDDGKRWLPPEQRNIGMIFQDYALFPHLTVAQNVGFGLDAMPAKQKEAKIAEMLALVHLDAFAERYPHQLSGGQQQRVAIARALAYKPDLLLLDEPFSNIDTQVRHELIIEIRKIFKQQGVTAIFVTHSREEAFAFADKMAVMNRGVIEQYGTAAELYYQPSSQFVADFLGGGSYLSAKRISETQYQTALGVVEAIARQPIAVEAECKLLLRPQQVQIRAEEESSVTVTEQQFMGDHCRYLIDAHGTQLIATSSQPLELGQAVSVNIDTQGVLAFA | not soluble |
| MSCIAAIAAAEGTGSRMAYVSLPRRLVTLLMISTVMVSCSAEGLVPPAEVDGTTRVSAIRSSRQQGYSAPSGAVNQVERAGQGADYPSTMSQPMPEPYASQDPLLQSPQAGQGYSTLDSQHQARMAASGHTNMPAQPMQSQTMQSQTMQAQTMQAQTMPGQQLASNQNAEGEGGVNMDSMLGVEPVRGLAEEQDADIAEGASAQPVVDGIGTDNPVAVSPPRRQQGASQSRLIPPPPVGSSSRRQPVEEVAMLMPNDPMAGGPMQSNRSMPPGVMPSSEVACRSELRRLGVAFRDVARIADGPTCGIDYPIELSGLASGVAIRPAVKLNCQVTLAFAKWVKFELVPSSRFRYLSGVGRITPMGGYSCRKMNSRSSNPWSEHARGNAIDIGTITLKNGKEIDVRSKSFFAFREKALLKAVRSDSCKYFSTVLGPGSDPNHWNHFHFDLRTRKSGYRHCD | not soluble |
| MSDARLAELAAAVGLQLDWQDANGRPQRVDPEVQRGLLEALGYPAQSPQQIEQSLAALARLREDSANLGLLVGECGQPLEQALGPAGTPGELVYEDGTRIALRLDAEGRLPAQARSGYAQLSLEQREWAVAMAPPSCPSLASLAPGRSRRWGLAAQVYALRRPGDGGLGDSAALEDLLRSAARHGADALAISPLHALAEANGHAYSPYSPSSRLFFNVLHAAPATILGAAAVEQAIRRAGLAAEMARLESLELIDWTAAADLRMRLLRQLHRDFTERASPLRHDLAEFRREAGEALLHHCRFETLQAHLGAGPDWRRWPEPLRRPGEPAVAAFCADHAEEVDFRAFGQWLTQRCLQHAQRQAREAGMAIGLVADLAVGADGGGSQAWSRQEELLAEVNVGAPPDILNQSGQDWGVSAFNPEGLRRHGYRAFREMLRANLAWPGGLRIDHVMGLQRLWLIPRGQPPHAGAYLRYPQRELLRLLALEASRASALVIGEDLGTVPEGLREELARRQVLGTRVLLFERRGERFVPPAQWPADAMATTSTHDLPSLSGWWRGRDIHWRGRAGHRSAEECAADLELRAEERRALAASLEPPVDPDPAAEVPLDACIGYVGATPAPLVLLPLEDALGSLEQPNLPGPGDAHPNWRRRWPENAAQMLGTPQVDRRLRLLERSRRDAEEA | not soluble |
| MSDEGLAPGKRLSEIRQQQGLSQRRAAELSGLTHSAISTIEQDKVSPAISTLQKLLKVYGLSLSEFFSEPEKPDEPQVVINQDDLIEMGSQGVSMKLVHNGNPNRTLAMIFETYQPGTTTGERIKHQGEEIGTVLEGEIVLTINGQDYHLVAGQSYAINTGIPHSFSNTSAGICRIISAHTPTTF | not soluble |
| MSDEREVAEAATGEDASSPPPKTEAASDPQHPAASEGAAAAAASPPLLRCLVLTGFGGYDKVKLQSRPAAPPAPGPGQLTLRLRACGLNFADLMARQGLYDRLPPLPVTPGMEGAGVVIAVGEGVSDRKAGDRVMVLNRSGMWQEEVTVPSVQTFLIPEAMTFEEAAALLVNYITAYMVLFDFGNLQPGHSVLVHMAAGGVGMAAVQLCRTVENVTVFGTASASKHEALKENGVTHPIDYHTTDYVDEIKKISPKGVDIVMDPLGGSDTAKGYNLLKPMGKVVTYGMANLLTGPKRNLMALARTWWNQFSVTALQLLQANRAVCGFHLGYLDGEVELVSGVVARLLALYNQGHIKPHIDSVWPFEKVADAMKQMQEKKNVGKVLLVPGPEKEN | soluble |
| MSDPLLQLISTGLGLWIRSRCDQVGDLDLTLQGSSLGLMRGRLQGAVLSARDVRFEGLPLHHAEISSGPIQLDLTWLRPGRMLALKDPFQVKGTVSMPGQPLGDALLSERWRELGDWIAEQLMGLKPLGQLRIENDELELVASVAAQRDPIRKRFRLRAEAGTVVLSASDSPETRAVLPMDPAITITDATLGAGLLTLQGHAIVTPE | not soluble |
| MSDSASNTENSIQIEIFPSRILSPETAQKLLVELSQVDGILRVMIQGNRLPEKVGYGPGTGEKVEHPLRKPIQIGGQVIELRVSVGRIRLEVLNAEVKENVRAVCEKMLPFSFEFREGHFLRRKPTVTDYAKLGPEADPRLLGMVDPKAKINQLVFIEKQEKEDDEDKDELEHHHHHH | soluble |
| MSDSDDNAYSDYLGNRRAALQKKRQPVRVCESDDSDDDFDTSGPSPMRKKTRETQLFPDDSDDDECVEVEKETYSQKVRHEIDDVEEAYRRSIYKRETVIHAPVEKNNVISGLLKICEGWDEAAKSGAQPEVEDVKDDSDADESSIAAENFPVTVVILDCESHGNDMKSRHDIFLESTFSEIRRIYATKWGCPVSCVVFSHNGKTIDTYTTPQSLGWRPMTLPHPLIEASKEAGEPAEVFTIENSPDSFTIKVLLASRRKPVQVEAAKDTTIQEILQKVIDAFVEDKEENIPSIESMKVVFDNERIKDVNITCEQLDLEDDDCIEVYF | not soluble |
| MSDSDIPSSTLYKDNVDWKDITPIYPSKEEEVAVKIAVTEDFTDAFAYFRAILIKNEKSDRVMALLEDCIRLNPANYTVWQYRRVCLTELGWDLKKEMRYLSDIIQESPKNYQVWHHRRFIVETIGESAVNDELHFCSEVIRDENKNYHAWQHRQWVVRTFKVPLEKELTFALHMLLLDNRNNSAYNYRYFLMTLYDKTEDASQLDIEINLAKKFIENIPNNESAWNYLAGLLITNGVTSNSDVVSFVEDLYETTPEEKRSPFLLAFIADMMLENIENQKSAEESAGRAKKLYKDLQSIDPVRVNYYRHQSLLAQTMLIKAQTKVTAK | not soluble |
| MSDTADSLSARGIPKSELIEDVESWLTKEKLSIEEAEVVLREKYGKYKYVESSMLAQKVRMSEKIPEFENSLSIIDTLIAKRAADESFETTFLLSDDVYTKATVQKPEKVSIWLGANVMVEYDLENARKLLDKNRGSVQKVVDELTNELSYIKDQITTTEVNMSHIVNFGVNKRRAALAVNNGAK | not soluble |
